According to US20040002593A1 (BURNHAM INSTITUTE, published 2004):

T1: ASC-CARD in pGilda (human, UniProt Q9ULZ3 107-195)
T1 construct: domain: CARD; Yeast two-hybrid construct; also called CARD domain of ASC
T1 sequence (looked up): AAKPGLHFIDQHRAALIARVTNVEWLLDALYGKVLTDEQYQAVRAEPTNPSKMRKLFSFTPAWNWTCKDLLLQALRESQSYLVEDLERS


Columns and labels:
ASC-CARD in pGilda = molecular target: T1, ASC-CARD in pGilda; assay: yeast two-hybrid, β-Gal read-out
Description: (§1) Colonies were plated on both LEU+ and LEU− media and also used for a β-Gal-assay.

ASC in pGilda = molecular target: T2, ASC in pGilda (human, UniProt Q9ULZ3 1-195); assay: yeast two-hybrid, Leu read-out
T2 construct: Yeast two-hybrid construct
Description: as §1

binding result (ASC-CARD in pGilda) | binding result (ASC in pGilda) | Binder | TNFα-induced activation of endogenous IKKα (in vitro kinase assay, phosphorylation of GST-IKBα substrate by immunoprecipitated IKKα) (Myc-ASC-PAAD)
– | – | endogenous IKKα (protein) MERPPGLRPGAGGPWEMRERLGTGGFGNVCLYQHRELDLKIAIKSCRLELSTKNRERWCHEIQIMKKLNHANVVKACDVPEELNILIHDVPLLAMEYCSGGDLRKLLNKPENCCGLKESQILSLLSDIGSGIRYLHENKIIHRDLKPENIVLQDVGGKIIHKIIDLGYAKDVDQGSLCTSFVGTLQYLAPELFENKPYTATVDYWSFGTMVFECIAGYRPFLHHLQPFTWHEKIKKKDPKCIFACEEMSGEVRFSSHLPQPNSLCSLVVEPMENWLQLMLNWDPQQRGGPVDLTLKQPRCFVLMDHILNLKIVHILNMTSAKIISFLLPPDESLHSLQSRIERETGINTGSQELLSETGISLDPRKPASQCVLDGVRGCDSYMVYLFDKSKTVYEGPFASRSLSDCVNYIVQDSKIQLPIIQLRKVWAEAVHYVSGLKEDYSRLFQGQRAAMLSLLRYNANLTKMKNTLISASQQLKAKLEFFHKSIQLDLERYSEQMTYGISSEKMLKAWKEMEEKAIHYAEVGVIGYLEDQIMSLHAEIMELQKSPYGRRQGDLMESLEQRAIDLYKQLKHRPSDHSYSDSTEMVKIIVHTVQSQDRVLKELFGHLSKLLGCKQKIIDLLPKVEVALSNIKEADNTVMFMQGKRQKEIWHLLKIACTQSSARSLVGSSLEGAVTPQTSAWLPPTSAEHDHSLSCVVTPQDGETSAQMIEENLNCLGHLSTIIHEANEEQGNSMMNLDWSWLTE | ASC-PAAD potently suppressed TNFα-induced activation of endogenous IKKα in these cells
binds | binds | ASC-CARD in pJG 4-5 (other, human, UniProt Q9ULZ3 107-195, looked up, not shown: large carriers, domain: CARD; Yeast two-hybrid construct; also called CARD domain of ASC) AAKPGLHFIDQHRAALIARVTNVEWLLDALYGKVLTDEQYQAVRAEPTNPSKMRKLFSFTPAWNWTCKDLLLQALRESQSYLVEDLERS | –
